24 molecules from patent US20060269997A1 (Genentech, published 2006) can be followed below.

The target in test [1] is T1, KDR (1-3) monomer (UniProt P35968 20-327, limits assumed, biotin-labeled in the ELISA of Example 8).
T1 construct: domain: domains 1 to 3; Genentech reagent; also called domains 1 to 3 of KDR
As to the kind of experiment: competition ELISA: plate coated with VEGF (8-109), 100 pM biotin-labeled KDR(1-3), serial dilutions of the competing VEGF (Example 8). As for the experimental part: (§1) After 1 hour, the plates were washed, and the bound protein stained with streptavidin horseradish peroxidase conjugate (Pharmacia) and assayed. Affinities were estimated as IC₅₀ values: the concentration of KDR(1-3) or Flt(1-3) that blocked 50% of protein binding.

Another test concerns the target T2, Flt-1 (1-3) monomer (UniProt P17948 27-331, limits assumed, biotin-labeled in the ELISA of Example 8).
T2 construct: domain: domains 1 to 3; Genentech reagent; also called Flt(1-3); domains 1 to 3 of Flt-1
Kind of test: competition ELISA: plate coated with VEGF (8-109), 100 pM biotin-labeled Flt1(1-3), serial dilutions of the competing VEGF (Example 8). The method, then: as §1
(In general: ELISA stands for enzyme-linked immunosorbent assay.)

Test [2] addresses T1, KDR (1-3) monomer. As to the kind of experiment: competition ELISA vs biotinylated VEGF (8-109), soluble KDR (1-3) captured by MAKD5. The method, then:
Receptor binding assays were performed in 96-well immunoplates (Maxisorp, Nunc-Immunoplate, Nalge Nunc International, Rochester, N.Y.). Each well was coated with 100 μl of a solution containing 8 μg/ml of a monoclonal antibody to KDR known as MAKD5 (Genentech, South San Francisco, Calif.) in 50 mM carbonate buffer at pH 9.6 and incubated at 4° C. overnight. The supernatant was discarded, the wells were washed three times in washing buffer (0.05% Tween 20 in PBS), and the plate was blocked (150 μl per well) with block buffer (0.5% BSA, 0.01% thimerosal in PBS) at room temperature for one hour. The supernatant was discarded, and the wells were washed.
Aliquots of this mixture (100 μl) were added to the precoated microtiter wells and the plate was incubated for 1 hour at room temperature. […] The wells were then incubated with 3,3′, 5,5′-tetramethyl benzidine (0.2 gram/liter; Kirkegaard & Perry Laboratories, Gaithersburg, Md.) for about 10 minutes at room temperature. Absorbance was read at 450 nm on a Vmax plate reader (Molecular Devices, Menlo Park, Calif.).
Titration curves were fit with a four-parameter nonlinear regression curve-fitting program (KaleidaGraph, Synergy Software, Reading, Pa.).

The term IC50 denotes the concentration needed to halve the response being measured.

T2 sequence (P17948 27-331 limits assumed): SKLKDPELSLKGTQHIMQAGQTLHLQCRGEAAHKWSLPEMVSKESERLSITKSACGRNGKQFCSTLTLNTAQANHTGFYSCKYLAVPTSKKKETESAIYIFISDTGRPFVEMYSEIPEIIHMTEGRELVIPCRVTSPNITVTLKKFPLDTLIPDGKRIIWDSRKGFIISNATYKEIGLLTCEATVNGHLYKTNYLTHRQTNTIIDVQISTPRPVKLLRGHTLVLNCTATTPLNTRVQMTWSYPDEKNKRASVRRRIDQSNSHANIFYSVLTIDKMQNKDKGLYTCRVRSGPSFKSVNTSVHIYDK
T1 sequence (P35968 20-327 limits assumed): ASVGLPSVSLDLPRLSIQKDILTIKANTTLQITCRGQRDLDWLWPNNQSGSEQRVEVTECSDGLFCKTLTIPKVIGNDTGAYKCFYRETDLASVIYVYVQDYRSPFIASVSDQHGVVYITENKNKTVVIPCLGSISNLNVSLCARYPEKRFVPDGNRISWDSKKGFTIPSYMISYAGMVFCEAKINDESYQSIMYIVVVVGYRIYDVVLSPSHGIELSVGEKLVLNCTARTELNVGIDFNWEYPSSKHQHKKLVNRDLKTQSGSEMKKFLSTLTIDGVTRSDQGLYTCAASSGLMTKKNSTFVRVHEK

B1: native VEGF (1-109) (ligand, human, UniProt P15692 207-315, looked up)
chain: APMAEGGGQNHHEVVKFMDVYQRSYCHPIETLVDIFQEYPDEIEYIFKPSCVPLMRCGGCCNDEGLECVPTEESNITMQIMRIKPHQGQHIGEMSFLQHNKCECRPKKD
modifications: 125I-labeled where used as tracer
Turning to B1, the IC50 in the test with KDR (1-3) monomer [1] turned out to be 10 nM; with Flt-1 (1-3) monomer, 6 nM.

B2: LK-VRB-19s (ligand, human, UniProt P15692-4 27-135, looked up)
chain: APMAEGGGQNHHEVVKFEDVYRRSSCHPIETLVDIFQEYPDEIEYIFKPSCVPLMRCGGCCNSEMRECVPTEESNITMQIMRIKPHQGQHIGEMSFLQHNKCECRPKKD
notes: one of the two is probably misprinted
For B2, in the test with KDR (1-3) monomer [2], the IC50 came out at 7 nM and the “Relative Binding Affinity (ratio to native VEGF (8-109))” value worked out at 7 fold.

B3: LK-VRB-10s (ligand, human, UniProt P15692-4 27-135, looked up)
chain: APMAEGGGQNHHEVVKFMDVYQRSSCHPIETLVDIFQEYPDEIEYIFKPSCVPLMRCGGCCNSEMRECVPTEESNITMQIMRIKPHQGQHIGEMSFLQHNKCECRPKKD
With B3, in the test with KDR (1-3) monomer [2], the IC50 is 0.5 nM and the “Relative Binding Affinity (ratio to native VEGF (8-109))” value worked out at 0.5 fold.

B4: LK-VRB-26s (ligand, human, UniProt P15692-4 27-135, looked up)
chain: APMAEGGGQNHHEVVKFEDVLRRSSCHPIETLVDIFQEYPDEIEYIFKPSCVPLMRCGGCCNDEMRECVPTEESNITMQIMRIKPHQGQHIGEMSFLQHNKCECRPKKD
Take B4: in the test with KDR (1-3) monomer [2], the IC50 was determined as 23 nM and the “Relative Binding Affinity (ratio to native VEGF (8-109))” value worked out at 23 fold.

B5: LK-VRB-12s (ligand, human, UniProt P15692-4 27-135, looked up)
chain: APMAEGGGQNHHEVVKFEDVYRRSYCHPIETLVDIFQEYPDEIEYIFKPSCVPLMRCGGCCNSEMRECVPTEESNITMQIMRIKPHQGQHIGEMSFLQHNKCECRPKKD
As for B5, in the test with KDR (1-3) monomer [2], the IC50 is 0.4 nM and the “Relative Binding Affinity (ratio to native VEGF (8-109))” value amounted to 0.4 fold.

B6: LK-VRB-11s (ligand, human, UniProt P15692-4 27-135, looked up)
chain: APMAEGGGQNHHEVVKFEDVLQRSYCHPIETLVDIFQEYPDEIEYIFKPSCVPLMRCGGCCNSEMRECVPTEESNITMQIMRIKPHQGQHIGEMSFLQHNKCECRPKKD
Turning to B6, in the test with KDR (1-3) monomer [2], the IC50 was determined as 2 nM and the “Relative Binding Affinity (ratio to native VEGF (8-109))” value was 2 fold.

B7: LK-VRB-24s (ligand, human, UniProt P15692-4 27-135, looked up)
chain: APMAEGGGQNHHEVVKFEDVLRRSSCHPIETLVDIFQEYPDEIEYIFKPSCVPLMRCGGCCNSEMLECVPTEESNITMQIMRIKPHQGQHIGEMSFLQHNKCECRPKKD
For the molecule B7, in the test with KDR (1-3) monomer [2], the IC50 was determined as 10 nM and the “Relative Binding Affinity (ratio to native VEGF (8-109))” value was 10 fold.

B8: LK-VRB-16s (ligand, human, UniProt P15692-4 27-135, looked up)
chain: APMAEGGGQNHHEVVKFMDVYRRSSCHPIETLVDIFQEYPDEIEYIFKPSCVPLMRCGGCCNSEMRECVPTEESNITMQIMRIKPHQGQHIGEMSFLQHNKCECRPKKD
As to B8, in the test with KDR (1-3) monomer [2], the IC50 stood at 0.6 nM and the “Relative Binding Affinity (ratio to native VEGF (8-109))” value stood at 0.6 fold.

B9: Glu 64* (ligand)
chain: APMAEGGGQNHHEVVKFMDVYQRSYCHPIETLVDIFQEYPDEIEYIFKPSCVPLMRCGGCCNDAGLECVPTEESNITMQIMRIKPHQGQHIGEMSFLQHNKCECRPKKD
For the molecule B9, the “fold reduction in binding (IC50 variant / IC50 VEGF(1-109))” value in the test with KDR (1-3) monomer [1] turned out to be 10 fold; with Flt-1 (1-3) monomer, 5 fold.

B10: LK-VRB-15s (ligand, human, UniProt P15692-4 27-135, looked up)
chain: APMAEGGGQNHHEVVKFMDVLQRSSCHPIETLVDIFQEYPDEIEYIFKPSCVPLMRCGGCCNSEMRECVPTEESNITMQIMRIKPHQGQHIGEMSFLQHNKCECRPKKD
With B10, in the test with KDR (1-3) monomer [2], the IC50 stood at 2 nM and the “Relative Binding Affinity (ratio to native VEGF (8-109))” value came out at 2 fold.

B11: Gln 89 (ligand)
chain: APMAEGGGQNHHEVVKFMDVYQRSYCHPIETLVDIFQEYPDEIEYIFKPSCVPLMRCGGCCNDEGLECVPTEESNITMQIMRIKPHQGAHIGEMSFLQHNKCECRPKKD
For the molecule B11, the “fold reduction in binding (IC50 variant / IC50 VEGF(1-109))” value in the test with KDR (1-3) monomer [1] and with Flt-1 (1-3) monomer was 1 fold each time.

B12: LK-VRB-14s (ligand, human, UniProt P15692-4 27-135, looked up)
chain: APMAEGGGQNHHEVVKFMDVLRRSYCHPIETLVDIFQEYPDEIEYIFKPSCVPLMRCGGCCNSEMRECVPTEESNITMQIMRIKPHQGQHIGEMSFLQHNKCECRPKKD
Take B12: in the test with KDR (1-3) monomer [2], the IC50 turned out to be 0.5 nM and the “Relative Binding Affinity (ratio to native VEGF (8-109))” value was found to be 0.5 fold.

B13: Gln 22** (ligand)
chain: APMAEGGGQNHHEVVKFMDVYARSYCHPIETLVDIFQEYPDEIEYIFKPSCVPLMRCGGCCNDEGLECVPTEESNITMQIMRIKPHQGQHIGEMSFLQHNKCECRPKKD
For the molecule B13, the results for the “fold reduction in binding (IC50 variant / IC50 VEGF(1-109))” value in the test with KDR (1-3) monomer [1] and with Flt-1 (1-3) monomer were 6 fold and 15 fold, respectively.

B14: LK-VRB-17s (ligand, human, UniProt P15692-4 27-135, looked up)
chain: APMAEGGGQNHHEVVKFEDVLRRSYCHPIETLVDIFQEYPDEIEYIFKPSCVPLMRCGGCCNSEMRECVPTEESNITMQIMRIKPHQGQHIGEMSFLQHNKCECRPKKD
With B14, in the test with KDR (1-3) monomer [2], the IC50 was determined as 3 nM and the “Relative Binding Affinity (ratio to native VEGF (8-109))” value came to 3 fold.

B15: Gln 79* (ligand)
chain: APMAEGGGQNHHEVVKFMDVYQRSYCHPIETLVDIFQEYPDEIEYIFKPSCVPLMRCGGCCNDEGLECVPTEESNITMAIMRIKPHQGQHIGEMSFLQHNKCECRPKKD
As for B15, the “fold reduction in binding (IC50 variant / IC50 VEGF(1-109))” value in the test with KDR (1-3) monomer [1] was found to be 55 fold; with Flt-1 (1-3) monomer, 3 fold.

B16: LK-VRB-21s (ligand, human, UniProt P15692-4 27-135, looked up)
chain: APMAEGGGQNHHEVVKFEDVLRRSSCHPIETLVDIFQEYPDEIEYIFKPSCVPLMRCGGCCNSEGLECVPTEESNITMQIMRIKPHQGQHIGEMSFLQHNKCECRPKKD
Regarding B16, in the test with KDR (1-3) monomer [2], the IC50 came to 3 nM and the “Relative Binding Affinity (ratio to native VEGF (8-109))” value came out at 3 fold.

B17: Asp 63** (ligand)
chain: APMAEGGGQNHHEVVKFMDVYQRSYCHPIETLVDIFQEYPDEIEYIFKPSCVPLMRCGGCCNAEGLECVPTEESNITMQIMRIKPHQGQHIGEMSFLQHNKCECRPKKD
B17: the “fold reduction in binding (IC50 variant / IC50 VEGF(1-109))” value in the test with KDR (1-3) monomer [1] turned out to be 1 fold; in the test with Flt-1 (1-3) monomer, 8 fold.

B18: LK-VRB-25s (ligand, human, UniProt P15692-4 27-135, looked up)
chain: APMAEGGGQNHHEVVKFEDVLRRSSCHPIETLVDIFQEYPDEIEYIFKPSCVPLMRCGGCCNSEGRECVPTEESNITMQIMRIKPHQGQHIGEMSFLQHNKCECRPKKD
As to B18, in the test with KDR (1-3) monomer [2], the IC50 worked out at 4 nM and the “Relative Binding Affinity (ratio to native VEGF (8-109))” value came out at 4 fold.

B19: Glu 103 (ligand)
chain: APMAEGGGQNHHEVVKFMDVYQRSYCHPIETLVDIFQEYPDEIEYIFKPSCVPLMRCGGCCNDEGLECVPTEESNITMQIMRIKPHQGQHIGEMSFLQHNKCACRPKKD
With B19, the “fold reduction in binding (IC50 variant / IC50 VEGF(1-109))” value with KDR (1-3) monomer [1] and with Flt-1 (1-3) monomer was 1 fold each time.

B20: LK-VRB-13s (ligand, human, UniProt P15692-4 27-135, looked up)
chain: APMAEGGGQNHHEVVKFEDVYQRSSCHPIETLVDIFQEYPDEIEYIFKPSCVPLMRCGGCCNSEMRECVPTEESNITMQIMRIKPHQGQHIGEMSFLQHNKCECRPKKD
B20: in the test with KDR (1-3) monomer [2], the IC50 was determined as 14 nM and the “Relative Binding Affinity (ratio to native VEGF (8-109))” value was found to be 14 fold.

B21: Arg 105 (ligand)
chain: APMAEGGGQNHHEVVKFMDVYQRSYCHPIETLVDIFQEYPDEIEYIFKPSCVPLMRCGGCCNDEGLECVPTEESNITMQIMRIKPHQGQHIGEMSFLQHNKCECAPKKD
For the molecule B21, the “fold reduction in binding (IC50 variant / IC50 VEGF(1-109))” value in the test with KDR (1-3) monomer [1] and with Flt-1 (1-3) monomer was 1 fold each time.

B22: LK-VRB-23s (ligand, human, UniProt P15692-4 27-135, looked up)
chain: APMAEGGGQNHHEVVKFEDVLRRSSCHPIETLVDIFQEYPDEIEYIFKPSCVPLMRCGGCCNDEGRECVPTEESNITMQIMRIKPHQGQHIGEMSFLQHNKCECRPKKD
For B22, in the test with KDR (1-3) monomer [2], the IC50 was found to be 11 nM and the “Relative Binding Affinity (ratio to native VEGF (8-109))” value amounted to 11 fold.

B23: LK-VRB-20s (ligand, human, UniProt P15692-4 27-135, looked up)
chain: APMAEGGGQNHHEVVKFMDVLRRSSCHPIETLVDIFQEYPDEIEYIFKPSCVPLMRCGGCCNSEMRECVPTEESNITMQIMRIKPHQGQHIGEMSFLQHNKCECRPKKD
On to B23, for which, in the test with KDR (1-3) monomer [2], the IC50 was 2 nM and the “Relative Binding Affinity (ratio to native VEGF (8-109))” value was 2 fold.

B24: LK-VRB-22s (ligand, human, UniProt P15692-4 27-135, looked up)
chain: APMAEGGGQNHHEVVKFEDVLRRSSCHPIETLVDIFQEYPDEIEYIFKPSCVPLMRCGGCCNDEMLECVPTEESNITMQIMRIKPHQGQHIGEMSFLQHNKCECRPKKD
As to B24, in the test with KDR (1-3) monomer [2], the IC50 stood at 4 nM and the “Relative Binding Affinity (ratio to native VEGF (8-109))” value worked out at 4 fold.
